Read-outs that look alike come from different tables or passages of the source.
Experiments:
[1] = biological target: T1, WT rat sGC heme free (tween treated) (rat, UniProt P19686 1-690; P20595 1-619); assay: SPR
T1 construct: alpha1-StrepII/beta1 heterodimer made in Sf9 cells and purified; The heme was removed with 0.5% Tween20 for 20 min at 37 C; It has the same polypeptides as the heme-loaded form and differs only in lacking the heme; also called heme free sGC (as obtained by tween treatment); heme free version of wt rat sGC; not shown: C-terminal strep-tag (StrepII)
T1 sequence (looked up) 1: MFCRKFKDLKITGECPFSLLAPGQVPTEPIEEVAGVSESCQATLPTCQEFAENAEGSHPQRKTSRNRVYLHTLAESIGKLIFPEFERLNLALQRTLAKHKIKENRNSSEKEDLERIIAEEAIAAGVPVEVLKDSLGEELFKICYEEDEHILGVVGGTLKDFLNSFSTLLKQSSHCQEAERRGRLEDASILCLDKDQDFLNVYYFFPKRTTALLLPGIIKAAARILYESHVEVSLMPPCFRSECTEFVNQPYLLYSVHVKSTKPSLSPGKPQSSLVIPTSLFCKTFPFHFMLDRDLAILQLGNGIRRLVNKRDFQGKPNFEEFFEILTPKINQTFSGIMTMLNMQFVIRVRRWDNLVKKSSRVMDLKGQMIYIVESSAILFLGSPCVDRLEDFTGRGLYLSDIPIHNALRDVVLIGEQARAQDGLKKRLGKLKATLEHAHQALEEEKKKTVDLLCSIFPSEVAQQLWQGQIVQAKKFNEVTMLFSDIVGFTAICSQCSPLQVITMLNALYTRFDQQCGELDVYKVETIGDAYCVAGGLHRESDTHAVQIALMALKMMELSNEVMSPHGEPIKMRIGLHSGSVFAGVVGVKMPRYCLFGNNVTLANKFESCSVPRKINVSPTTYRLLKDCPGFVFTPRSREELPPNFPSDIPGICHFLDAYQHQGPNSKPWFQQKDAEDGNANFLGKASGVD
T1 sequence (looked up) 2: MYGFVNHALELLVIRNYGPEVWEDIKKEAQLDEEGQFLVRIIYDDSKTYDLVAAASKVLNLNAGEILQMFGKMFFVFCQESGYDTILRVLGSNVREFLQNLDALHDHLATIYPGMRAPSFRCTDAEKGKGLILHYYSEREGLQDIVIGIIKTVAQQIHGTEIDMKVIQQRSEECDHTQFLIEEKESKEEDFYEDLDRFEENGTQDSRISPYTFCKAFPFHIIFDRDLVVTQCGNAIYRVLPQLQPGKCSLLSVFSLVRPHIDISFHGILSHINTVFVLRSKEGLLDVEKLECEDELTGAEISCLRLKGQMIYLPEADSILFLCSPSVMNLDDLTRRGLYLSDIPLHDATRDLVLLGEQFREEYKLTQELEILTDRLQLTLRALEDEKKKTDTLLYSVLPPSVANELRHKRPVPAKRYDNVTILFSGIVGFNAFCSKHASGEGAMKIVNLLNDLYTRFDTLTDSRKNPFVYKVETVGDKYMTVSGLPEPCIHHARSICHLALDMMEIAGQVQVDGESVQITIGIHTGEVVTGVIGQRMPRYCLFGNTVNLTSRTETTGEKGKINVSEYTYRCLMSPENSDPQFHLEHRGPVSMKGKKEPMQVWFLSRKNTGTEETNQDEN

[2] = biological target: T1, WT rat sGC heme free (tween treated); assay: capture ELISA: IgG coated at 5 ug/mL, tween-treated (heme-free) WT rat sGC titrated, streptavidin-HRP, OD 450 nm; the axis gives the sGC concentration
Description: (§1) To determine by ELISA the capacity of individual IgGs to discriminate the apo (heme free) version of wt rat sGC from the heme-loaded version, 5 μg/mL of each individual IgG were coated in Nunc® maxisorp 96-well plates overnight at 4° C. After a minimum 16 hours adsorption period, coated maxisorp plates were blocked with PBS-3% skimmed milk (v/v) prior to the addition of purified rat wt sGC proteins previously treated with 0.5% (v/v) tween to remove the heme group, or not-treated thus preserving heme group. Successful entrapment of heme free or heme-loaded wt rat sGC molecules by reformatted IgG molecules was detected with streptavidin-HRP.

[3] = biological target: T1, WT rat sGC heme free (tween treated); assay: as above; remark: listed apart in the source
Description: as §1

[4] = biological target: Human apo-sGC (H105F) (human) (UniProt Q02108); assay: SPR
[5] = biological target: rat apo-sGC (H105F) (rat) (UniProt P19686); assay: SPR
[6] = biological target: rat apo-sGC (H105F) (rat) (UniProt P19686); assay: capture ELISA: IgG coated at 5 ug/mL, rat apo-sGC (H105F) titrated, streptavidin-HRP, OD 450 nm; the axis gives the sGC concentration

Human apo-sGC (H105F) (human), sequence (Q02108 whole entry, stated change not applied): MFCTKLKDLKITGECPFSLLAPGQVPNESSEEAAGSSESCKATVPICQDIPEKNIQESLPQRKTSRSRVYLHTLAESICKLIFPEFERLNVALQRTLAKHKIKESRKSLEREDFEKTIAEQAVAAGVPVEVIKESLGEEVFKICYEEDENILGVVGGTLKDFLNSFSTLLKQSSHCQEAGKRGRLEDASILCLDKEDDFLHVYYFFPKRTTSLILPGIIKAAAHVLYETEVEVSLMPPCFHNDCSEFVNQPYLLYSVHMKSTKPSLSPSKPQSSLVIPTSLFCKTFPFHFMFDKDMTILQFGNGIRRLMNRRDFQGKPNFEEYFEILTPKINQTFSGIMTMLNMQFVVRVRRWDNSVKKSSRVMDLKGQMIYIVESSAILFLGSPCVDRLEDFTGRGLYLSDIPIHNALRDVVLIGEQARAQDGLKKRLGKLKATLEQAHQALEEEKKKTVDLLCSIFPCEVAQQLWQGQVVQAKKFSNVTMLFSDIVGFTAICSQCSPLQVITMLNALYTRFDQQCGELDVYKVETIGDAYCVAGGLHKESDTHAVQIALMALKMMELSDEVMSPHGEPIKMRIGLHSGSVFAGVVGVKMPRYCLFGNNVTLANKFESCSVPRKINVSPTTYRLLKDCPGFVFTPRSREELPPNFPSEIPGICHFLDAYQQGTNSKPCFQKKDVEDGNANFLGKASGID

B1: TPP15715 (antibody, human IgG1, lambda, V domains shown)
VH: EVQLLESGGGLVQPGGSLRLSCAASGFTFSNYAMSWVRQAPGKGLEWVSAISGSGGSTFYADSVKGRFTISRDNSKNTLYLQMNSLRAEDTAVYYCATDGTDAFDIWGQGTLVTVSS
VL: QSVLTQPPSASGTPGQRVTISCTGSSSNIGAGYDVHWYQQLPGTAPKLLIYENDRRPSGVPDRFSGSKSGTSASLAISGLRSEDEADYYCAAWDDSLNGPLFGGGTKLTVLG
notes: also called 5H10; TPP15715_5H10
Kd [1]: 50 nM
EC50 (read off the curve) [2]: ~50 nM
EC50 (read off the curve) [3]: ~20 nM

B2: TPP16284 (antibody, human IgG1, lambda, V domains shown)
VH: EVQLLESGGGLVQPGGSLRLSCAASGFTFSSYAMSWVRQAPGKGLEWVSGVSWNGSRTHYADSVKGRFTISRDNSKNTLYLQMNSLRAEDTAVYYCARERLGKWYFDLWGRGTLVTVSS
VL: QSVLTQPPSASGTPGQRVTISCSGSSSNIGNNAVNWYQQLPGTAPKLLIYGNSNRPSGVPDRFSGSKSGTSASLAISGLRSEDEADYYCQSYDSSLSGVFGGGTKLTVLG
Kd [4]: 146 nM
Kd [5]: 67 nM
EC50 (read off the curve) [6]: 70 nM
